In patent publication US8372810B2, “Anti-tumor drug, medicament, composition, and use thereof” (Gene Signal International SA, priority 2007, dated 2013):

How the values were obtained:
HUVEC = test: Wound assay, migration of human endothelial cells; type: cell-based; conditions: 18 hours; 497C-T2 0.83 and 1.66 μM; 497C-T3 2.4 μM; 497C-T4 3.52 μM; 497C-T5 3.65 μM; C-terminal tail 4.92 μM
Description: Cell migration was tested by the wound assay described by Sato and Rifkin (J Cell Biol. 1988; 107:1199) with few modifications. HUVEC grown in growth medium EGM-2MV (Cambrex) were seeded in 24-well plates at 80 000 cells per well in 500 μL of growth medium and grown to confluence at 37° C. in a humidified atmosphere containing 5% CO2. Cells were scrapped with a plastic tip on one line only. After wounding, the culture medium was changed for fresh medium (control, FIG. 3a) or fresh medium supplemented with: • FIG. 3b: 497C-T2 20 μg/mL (0.83 μM) • FIG. 3c: 497C-T2 40 μg/mL (1.66 μM) • FIG. 3d: 497C-T3 48 μg/mL (2.4 μM) • FIG. 3e: 497C-T4 60 μg/mL (3.52 μM) • FIG. 3f: 497C-T5 61 μg/mL (3.65 μM) • FIG. 3g: C-terminal tail 63 μg/mL (4.92 μM)
After 18 hours of culture, cells were observed and photographed under the inverted microscope (Analysis, Olympus, Rungis, France).

NCI H460 human tumor = NCI H460 human tumor xenograft in Swiss Nude mice, tumor growth; type: in vivo; parameters: key to MRTV D28 / MRTV D12 / MRTV D14 / MRTV D16 / MRTV D18 / MRTV D20 / MRTV D22 / MRTV D24 / MRTV D26: ratio of mean tumor volume at day t to volume at injection (D12); conditions: for MRTV D12: reference day
Description: NCI H460 cells were cultured as adherent cells in complete RPMI 1640 medium (Ref. CM1RRM08-01, batch No. 623615, Eurobio, France) containing 2 mM L-Glutamine, adjusted to 4.5 g/L glucose (Ref. G7528, batch No. 033K0121, Sigma, France) and supplemented with 10 mM HEPES (Ref. H0887, batch No. 113K2338, Sigma, France), 1.0 mM sodium pyruvate (Ref. CSTVAT00-0U, batch No. 520818, Sigma, France) and 10% fetal calf serum (FCS; Ref. CVFSVF00-01, batch No. S13021, Eurobio, France) under a 37° C., 5% CO2 humidified atmosphere. They were amplified in 75 cm^2-flasks to reach 90×10^6 cells.
At D0, NCI H460 cells (human lung carcinoma) were collected from 75 cm^2-flasks by removing the medium and adding 3 ml of trypsine-EDTA (Ref. CEZTDA00-0U, batch No. 633920, Eurobio, France). After 5 min of incubation at 37° C., cells were detached from the plastic and the enzymatic reaction was stopped by adding 3 ml of RPMI 1640 medium containing 10% fetal calf serum. Cells were then centrifuged at 700 g for 5 min at room temperature. They were resuspended in serum-free RPMI 1640 culture medium containing L-Glutamine (2 mM), glucose (4.5 g/l), sodium pyruvate (1 mM) and buffered with HEPES (10 mM). Cells were counted and the number of viable NCI H460 cells was >99%. The number of cells was then adjusted to 25.10^6 cells/ml in serum-free medium.
NCI H460 cells (5.10^6 cells/mouse in 200 μL of serum-free medium) were then implanted subcutaneously in the right flank of each mouse.
At D12 post-implantation of the NCI H460 cells, the thirty mice were randomized into six groups of 5 mice. Tumor volumes had reached 228 to 468 mm^3 and mean tumor volumes were not statistically different between groups after randomization.
All solutions were injected IP.
Animals have been observed daily.
• Tumor growth curves were drawn using the mean tumor volumes (MTV), • Mean Relative tumor volume (MRTV) was calculated as the ratio between the MTV at time t and the volume at the time of injection (t=D12), • Tumor growth inhibition (T/C, %) was evaluated as the ratio of the median tumor volumes of treated groups versus vehicle group.
Statistical analyses of tumor volumes (V), time to reach ‘V’, tumor-doubling time (DT), relative tumor volume (RTV) and tumor growth inhibition (T/C) were performed for all groups. Data are expressed as mean±SD. Groups of data were normally distributed. Univariate analysis were performed to assess differences between groups. Statistical significance was then determined using the Student's t test. A P<0.05 was considered as statistically significant. The Statistical analysis was performed using XLSTAT (Addinsoft, France).

tumor cell line Calu-6 = test: Proliferation of other cell lines: Calu-6; type: cell-based, human; conditions: even at high concentration
[1] = 497C-T2 10 mg/kg IP Q1DX16 (G4)
[2] = 497C-T2 10 mg/kg IP Q1DX16 (G4), 10 mg/kg
[3] = 497C-T2 10 mg/kg IP Q1DX16 (G4), listed as 497C-T2-Batch A
[4] = 497C-T2 10 mg/kg IP once daily Q1DX16 (G4)
[5] = IP Q2DX8, CDDP 5 mg/kg (G2), 497C-T2 10 mg/kg (G3), 497C-T2 10 mg/kg + CDDP 5 mg/kg (G5)
[6] = IP Q2DX8, CDDP 5 mg/kg (G2), 497C-T2 10 mg/kg (G3), 497C-T2 10 mg/kg + CDDP 5 mg/kg (G5), listed as 497C-T2-Batch A

B1: 497C-T2: entire LEL domain of protein 497C, SEQ ID NO:3 (112 amino acids); as produced SEQ ID NO:8, with N-terminal His-Tag and C-terminal tail, 24 kD (protein, listed as Homo sapiens)
chain: MHHHHHHSSGLVPRGSGMKETAAAKFERQHMDSPDLGTDDDDKISGFVFRHEIKDTFLRTYTDAMQTYNGNDERSRAVDHVQRSLSCCGVQNYTNWSTSPYFLEHGIPPSCCMNETDCNPQDLHNLTVAATKVNQKGCYDLVTSFMETNMGIIAGDRASPQPWRYRIRILAPSTSLRPHSSTTTTTTXIRLLTKPERKLSWLLPPLSNN
modifications: X: residue not identified in the source
Q: What does the source list for B1?
A: inhibition of endothelial cell migration (HUVEC): inhibited human endothelial cells migration in a dose dependent manner; MTV at D14 (NCI H460 human tumor; [1]): 468.85 mm^3; MTV at D24 (NCI H460 human tumor; [1]): 2289.22 mm^3; T/C at D14 (treated/vehicle tumor volume ratio) (NCI H460 human tumor; [1]): 46.90%; T/C at D24 (treated/vehicle tumor volume ratio) (NCI H460 human tumor; [1]): 71.04%; DT (doubling time of tumor volume) (NCI H460 human tumor; [2]): 5.9 ± 1.21 days; MTV at D28 (NCI H460 human tumor; [2]): 3167±1681 mm^3; T/C at D28 (treated/vehicle tumor volume ratio) (NCI H460 human tumor; [2]): 71%; DT (doubling time of tumor volume) (NCI H460 human tumor; [3]): 5.9 days; MTV at D28 (NCI H460 human tumor; [3]): 3167.34 mm^3; T/C at D28 (treated/vehicle tumor volume ratio) (NCI H460 human tumor; [3]): 71.32%; MRTV D14 (NCI H460 human tumor; [4]): 1.08; MRTV D16 (NCI H460 human tumor; [4]): 1.00; MRTV D18 (NCI H460 human tumor; [4]): 1.69; MRTV D20 (NCI H460 human tumor; [4]): 2.63; MRTV D22 (NCI H460 human tumor; [4]): 3.08; MRTV D24 (NCI H460 human tumor; [4]): 3.08; MRTV D26 (NCI H460 human tumor; [4]): 4.89; MRTV D28 (NCI H460 human tumor; [4]): 6.76; DT (doubling time of tumor volume) (NCI H460 human tumor; [5]): 4.08 ± 1.4 days; MRTV D14 (NCI H460 human tumor; [5]): 1.37; MRTV D16 (NCI H460 human tumor; [5]): 1.70; MRTV D18 (NCI H460 human tumor; [5]): 2.46; MRTV D20 (NCI H460 human tumor; [5]): 2.81; MRTV D22 (NCI H460 human tumor; [5]): 3.30; MRTV D24 (NCI H460 human tumor; [5]): 3.22; MRTV D26 (NCI H460 human tumor; [5]): 5.80; MRTV D28 (NCI H460 human tumor; [5]): 7.37; MTV at D14 (NCI H460 human tumor; [5]): 571.00 mm^3; MTV at D24 (NCI H460 human tumor; [5]): 1955.02 mm^3; MTV at D28 (NCI H460 human tumor; [5]): 2482±2075 mm^3; T/C at D14 (treated/vehicle tumor volume ratio) (NCI H460 human tumor; [5]): 57.12%; T/C at D24 (treated/vehicle tumor volume ratio) (NCI H460 human tumor; [5]): 60.67%; T/C at D28 (treated/vehicle tumor volume ratio) (NCI H460 human tumor; [5]): 56%; DT (doubling time of tumor volume) (NCI H460 human tumor; [6]): 4.08 days; MTV at D28 (NCI H460 human tumor; [6]): 2481.61 mm^3; T/C at D28 (treated/vehicle tumor volume ratio) (NCI H460 human tumor; [6]): 55.88%; anti-tumoral activity (NCI H460 human tumor; NCI H460, monotherapy (G3, G4) or combined with CDDP (G5, G6)): moderate anti-tumoral activity; MRTV D12 (NCI H460 human tumor; [4]): 1.00; MRTV D12 (NCI H460 human tumor; [5]): 1.00; anti-proliferative effect (tumor cell line Calu-6): without any detectable anti-proliferative effect
